The source of these data is paper doi:10.1101/2022.05.02.490369.

In this assay the target is RPP1^TIR (residue 83-254) (Arabidopsis) (UniProt F4J339). Briefly: crystal structure.

Turning to “RPP1^TIR (residue 83-254) (from UniProt F4J339 83-254) (domain or fragment)”, the stoichiometry N is 4.

The term stoichiometry N denotes a count of units in the complex or per binding partner.
